Consider ten substances from US20260042849A1, “PROTEASE-CLEAVABLE MOIETIES AND METHODS OF USE THEREOF” (CytomX Therapeutics, Inc., priority 2022, published 2026).

“And” between values parts separate entries of the source, which are not always exact repeats. Equal values may be shown once. Ends that are not written are not given here.

The conditions of series [1]: mouse.
Series [2] deals with T1, MMP2 (Homo sapiens, UniProt P08253).
T1 sequence (P08253 110-660): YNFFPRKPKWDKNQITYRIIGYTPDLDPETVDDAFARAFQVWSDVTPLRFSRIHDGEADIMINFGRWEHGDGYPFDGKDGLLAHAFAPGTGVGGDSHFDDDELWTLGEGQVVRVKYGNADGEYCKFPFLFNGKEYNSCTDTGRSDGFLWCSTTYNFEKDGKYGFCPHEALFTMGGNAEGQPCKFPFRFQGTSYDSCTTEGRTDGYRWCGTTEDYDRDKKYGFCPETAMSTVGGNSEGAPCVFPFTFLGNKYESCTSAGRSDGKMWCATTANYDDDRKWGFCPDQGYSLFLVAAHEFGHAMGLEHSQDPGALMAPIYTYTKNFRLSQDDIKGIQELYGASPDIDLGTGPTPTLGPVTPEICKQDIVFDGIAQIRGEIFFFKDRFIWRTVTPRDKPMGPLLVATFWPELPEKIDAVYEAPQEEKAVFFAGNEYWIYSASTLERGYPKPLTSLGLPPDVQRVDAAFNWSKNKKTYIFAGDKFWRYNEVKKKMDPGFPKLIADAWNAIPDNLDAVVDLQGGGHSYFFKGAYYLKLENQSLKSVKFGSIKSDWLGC
The experiment in a line: In vitro cleavability of activatable antibodies, capillary electrophoresis. It counts as biochemical. Details: purchased R&D Systems 902-MP. As to conditions: 500 nM activatable antibody, 10 nM protease, 4 hours at 37° C.

Series [3] has as its target T2, MMP9 (Homo sapiens, UniProt P14780). Described as above. As to conditions: 500 nM activatable antibody, 10 nM protease, 4 hours at 37° C. Also noted: purchased R&D Systems 911-MP; key to Cleavability (%) 4h MMP9: “—” indicates below limit of quantification. It counts as biochemical.
Series [4] addresses T3, MMP14 (Homo sapiens, UniProt P50281). The description is as above. Type of series: biochemical. Details: key to Cleavability (%) 4h MMP14: “—” indicates below limit of quantification. Particulars: for Cleavability (%) 4h MMP14: 500 nM activatable antibody, 10 nM protease, 4 hours at 37° C.
Series [5] has as its target T4, MT-SP1 (Homo sapiens, UniProt Q9Y5Y6).
T4 sequence (Q9Y5Y6 615-855 limits assumed): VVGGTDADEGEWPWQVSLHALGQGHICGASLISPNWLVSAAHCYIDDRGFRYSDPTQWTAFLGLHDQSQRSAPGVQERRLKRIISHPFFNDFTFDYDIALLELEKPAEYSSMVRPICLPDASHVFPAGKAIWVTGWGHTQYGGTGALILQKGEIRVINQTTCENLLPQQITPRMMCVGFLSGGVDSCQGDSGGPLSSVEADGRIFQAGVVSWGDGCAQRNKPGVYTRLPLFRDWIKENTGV
The series is described as above. It counts as biochemical. As to conditions: 500 nM activatable antibody, 10 nM protease, 4 hours at 37° C. Also noted: purchased R&D Systems 3946-SEB. On the procedure: The studies provided herein evaluate the in vitro cleavability of activatable antibodies containing exemplary CMs that include a substrate cleavable by a matrix metalloprotease (MMP) and/or a substrate cleavable by a matriptase (MT-SP1).
Each activatable antibody (500 nM) was incubated with 10 nM of the indicated single protease for 4 hours at 37° C. Human recombinant proteases were purchased from R&D Systems: MT-SP1 (catalog No: 3946-SEB), MMP2 (catalog No: 902-MP), MMP9 (catalog No: 911-MP), and MMP14 (catalog No: 918-MP). […] Protease concentrations were determined by active site titration. Activity assays were performed in the following buffers: 50 mM TRIS-HCl (pH 7.4), 150 mM NaCl, 0.05% Tween 20 for MT-SP1, 50 mM Tris-HCl, 10 mM CaCl2), 150 mM NaCl, 0.05% (w/v) Brij-35, pH 7.5 for MMP2 and MMP9, and 50 mM HEPES (pH 6.8), 10 mM CaCl2), 0.5 mM MgCl2 for MMP14. Following incubation, the presence of cleavage product was determined by capillary electrophoresis for each protease enzyme using a LabChip GXII Touch system (Perkin Elmer) with the HT Protein Express 100 protocol (Perkin Elmer). LabChip GXII Touch HT Chips (Perkin Elmer #760499) were set up using the protocol of the Protein Express Assay Reagent Kit (Perkin Elmer #CLS960008).

The target in series [6] is T1, MMP2. The series is described as follows: Internally quenched peptide probe cleavage assay (Example 8). It counts as biochemical. As to conditions: 20 μM peptide probe, 20 nM protease, 37° C. An excerpt:
(§1) The study provided herein evaluated the cleavability kinetics (i.e., pM/s and kcat/KM (M^−1 s^−1) of CMs with matriptase (MT-SP1) and matrix metalloprotease (MMP) 2 (MMP2), MMP9, and MMP14. The CMs listed in Table 10 below were presented in an internally quenched peptide probe format, rather than included in an activatable antibody format. In the internally quenched probes, the CM sequence was positioned between a 7-methoxycoumarin-4-acetyl (MCA) fluorophore and a 2,4-dinitrophenyl (DNP) quencher such that cleavage of the CM sequence produced a fluorescence signal. The probes were of the following designs: (MCA)-Gly-Ser-X1-X2-Pro-X3-Gly-Leu-X4-X5-Gly-Ser-Lys (DNP)-D-Arg (SEQ ID NO: 178) where X1 is Arg or is absent, X2 is Ser or is absent, X3 is Met or Trp, X4 is Lys, Arg, or is absent, and X5 is Ser or is absent; (MCA)-Ser-X1-Pro-X2-Gly-Leu-X3-X4-Gly-Ser-Lys (DNP)-D-Arg (SEQ ID NO: 179) where X1 is Ala, X2 is Met, X3 is Lys, and X4 is His; and (MCA)-Gly-Ser-Pro-X1-Gly-Leu-X2-Gly-Gly-Ser-Lys (DNP)-D-Arg (SEQ ID NO: 180) where X1 is Met and X2 is Lys, as indicated in Table 10. The cleavage rates (pM/s) were measured using 20 μM internally quenched peptide probe and 20 nM MT-SP1, MMP2, MMP9, or MMP14. Cleavability kinetics (i.e., pM/s and kcat/KM (M^−1 s^−1)) were measured at 37° C. in 96- or 384-well plate format in the following buffers: 50 mM TRIS-HCl (pH 7.4), 150 mM NaCl, 0.05% Tween 20 for MT-SP1, 50 mM Tris-HCl (pH 7.5), 10 mM CaCl2, 150 mM NaCl, 0.05% (w/v) Brij-35 for MMP2 and MMP9, and 50 mM HEPES (pH 6.8), 10 mM CaCl2), 0.5 mM MgCl2, 0.05% (w/v) Brij-35 for MMP14. Cleavability kinetics were determined on an Infinite 200 PRO (Tecan) multimode plate reader using a fluorescence excitation wavelength of 320 nm and an emission wavelength of 405 nm.

Series [7] concerns the target T3, MMP14. The series is described as above. It counts as biochemical. As to conditions: 20 μM peptide probe, 20 nM protease, 37° C.
Source text: as §1

The target of series [8] is T2, MMP9. The description is as above. Type of series: biochemical. As to conditions: 20 μM peptide probe, 20 nM protease, 37° C.
Source text: as §1

Series [9] deals with T4, MT-SP1. Described as above. Type of series: biochemical. Particulars: 20 μM peptide probe, 20 nM protease, 37° C.
Source text: as §1

The target of the next series is recombinant EGFR (Homo sapiens, UniProt P00533). The experiment in a line: Solid-phase binding assay (ELISA) of anti-EGFR activatable antibodies. Particulars: compared to activatable antibodies with control CM 2001.

T2 sequence (P14780 107-707 limits assumed): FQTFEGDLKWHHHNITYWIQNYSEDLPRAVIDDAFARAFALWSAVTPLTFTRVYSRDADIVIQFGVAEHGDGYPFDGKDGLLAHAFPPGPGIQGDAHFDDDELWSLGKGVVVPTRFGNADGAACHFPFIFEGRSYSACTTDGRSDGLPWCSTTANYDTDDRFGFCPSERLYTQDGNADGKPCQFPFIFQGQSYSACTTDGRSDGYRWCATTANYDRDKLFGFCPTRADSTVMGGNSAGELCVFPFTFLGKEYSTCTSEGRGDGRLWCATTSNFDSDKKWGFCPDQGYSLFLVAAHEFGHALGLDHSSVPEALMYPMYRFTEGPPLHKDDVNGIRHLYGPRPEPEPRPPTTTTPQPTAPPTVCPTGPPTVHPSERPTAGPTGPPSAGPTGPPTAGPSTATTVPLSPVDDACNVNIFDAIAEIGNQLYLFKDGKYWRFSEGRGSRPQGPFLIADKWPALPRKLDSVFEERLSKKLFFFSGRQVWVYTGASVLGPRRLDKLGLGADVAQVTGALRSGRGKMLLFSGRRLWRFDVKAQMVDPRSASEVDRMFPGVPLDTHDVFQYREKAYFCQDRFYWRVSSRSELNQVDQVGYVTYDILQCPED

Regarding GPWGLL [CM 7043], the “in vivo stability versus control CMs” value in [1] was “higher in vivo stability”. Moreover, the “In Vivo % Activation (nu/nu, day 7)” value in series [1] (ip, 10 mg/kg) is reported as 44%. In the series with MMP2 [2], the “Cleavability (%) 4h MMP2” value is on record as 86.0%. Further, in the series with MMP9 [3], the “Cleavability (%) 4h MMP9” value is 96.2%. In the series with MMP14 [4], the “Cleavability (%) 4h MMP14” value was 77.6%.
Consider GPYGLL [CM 7048], for which the “Cleavability (%) 4h MMP2” value with MMP2 [2] is reported as 96.1%. Also, the “Cleavability (%) 4h MMP9” value in the series with MMP9 [3] worked out at 98.3%. In addition, in the series with MMP14 [4], the “Cleavability (%) 4h MMP14” value is 66.3%.
As to “ISSGLLSGRSDNH [CM 2001, reference compound]”, in the series with MMP2 [2], the “Cleavability (%) 4h MMP2” value was 50.6% and 44.1% and 52.2%. For the same substance, in the series with MMP9 [3], the “Cleavability (%) 4h MMP9” value is given as “—”. The “Cleavability (%) 4h MMP14” value with MMP14 [4] was 82.2% and 80.2% and 92.9%. Further, the “Cleavability (%) 4h MT-SP1” value with MT-SP1 [5] came out at 30.5%.
For the substance “PMGLK (also: internally quenched fluorophore/quencher probe, groups not placed) [CM 7019, tested as internally quenched peptide probe]”, the “Probe Cleavage (pM/s) MMP2” value with MMP2 [6] was 4690 pM/s. The “Probe Cleavage (pM/s) MMP14” value in the series with MMP14 [7] amounted to 5950 pM/s. In addition, the “Probe Cleavage (pM/s) MMP9” value in the series with MMP9 [8] was 6080 pM/s. Also, the “Probe Cleavage (pM/s) MT-SP1” value with MT-SP1 [9] was determined as 46.1 pM/s.
The like results for “PMGLKS (also: internally quenched fluorophore/quencher probe, groups not placed) [CM 7018, tested as internally quenched peptide probe]” were, in that order, 119000 pM/s, 153000 pM/s, 133000 pM/s and 14100 pM/s.
With “PWGL [CM 7041, also tested as internally quenched peptide probe]”, in the series with MMP2 [2], the “Cleavability (%) 4h MMP2” value is recorded as 15.8%. Also, the “Cleavability (%) 4h MMP9” value in the series with MMP9 [3] is on record as 12.3%. Further, the “Cleavability (%) 4h MMP14” value with MMP14 [4] was “—”.
Consider “PWGLRS [tested as internally quenched peptide probe]”, for which the “Probe Cleavage (pM/s) MMP2” value with MMP2 [6] was found to be 3800 pM/s. In the series with MMP14 [7], the “Probe Cleavage (pM/s) MMP14” value worked out at 4380 pM/s. In addition, the “Probe Cleavage (pM/s) MMP9” value in the series with MMP9 [8] is 3830 pM/s. Besides, the “Probe Cleavage (pM/s) MT-SP1” value in the series with MT-SP1 [9] came out at 1230 pM/s.
Take PWGLS [CM 7045]: the “effect of CM on apparent masking efficiency” value in the series with recombinant EGFR is “increasing the apparent masking efficiency”. Besides, the “Cleavability (%) 4h MMP2” value with MMP2 [2] is 40.2%. In addition, the “Cleavability (%) 4h MMP9” value with MMP9 [3] is 74.5%. Also, the “Cleavability (%) 4h MMP14” value with MMP14 [4] turned out to be 15.6%. Also, the “percent activation for MMP14” value in the series with MMP14 [4] (Tables 6A-6C, activatable antibody format) is reported as “greater than 10%”.
Consider “PYGL [CM 7047, also tested as internally quenched peptide probe]”, for which the “Cleavability (%) 4h MMP2” value with MMP2 [2] stood at 27.5%. Also, the “Cleavability (%) 4h MMP9” value with MMP9 [3] came out at 19.2%. Besides, the “Cleavability (%) 4h MMP14” value with MMP14 [4] was “—”.
With “RSPWGL [tested as internally quenched peptide probe]”, the “Probe Cleavage (pM/s) MMP2” value in the series with MMP2 [6] is listed as 11700 pM/s. Besides, the “Probe Cleavage (pM/s) MMP14” value with MMP14 [7] stood at 9580 pM/s. Further, the “Probe Cleavage (pM/s) MMP9” value with MMP9 [8] is 25500 pM/s. Also, the “Probe Cleavage (pM/s) MT-SP1” value in the series with MT-SP1 [9] was found to be 2390 pM/s.
